Target: IL12 receptor on pre-activated mouse CD8+ T cells (mouse) (UniProt Q60837)
Assay: cell-based or functional assay

Chain of IL12 receptor on pre-activated mouse CD8+ T cells (mouse) (Q60837 20-738, chain 1 of 2): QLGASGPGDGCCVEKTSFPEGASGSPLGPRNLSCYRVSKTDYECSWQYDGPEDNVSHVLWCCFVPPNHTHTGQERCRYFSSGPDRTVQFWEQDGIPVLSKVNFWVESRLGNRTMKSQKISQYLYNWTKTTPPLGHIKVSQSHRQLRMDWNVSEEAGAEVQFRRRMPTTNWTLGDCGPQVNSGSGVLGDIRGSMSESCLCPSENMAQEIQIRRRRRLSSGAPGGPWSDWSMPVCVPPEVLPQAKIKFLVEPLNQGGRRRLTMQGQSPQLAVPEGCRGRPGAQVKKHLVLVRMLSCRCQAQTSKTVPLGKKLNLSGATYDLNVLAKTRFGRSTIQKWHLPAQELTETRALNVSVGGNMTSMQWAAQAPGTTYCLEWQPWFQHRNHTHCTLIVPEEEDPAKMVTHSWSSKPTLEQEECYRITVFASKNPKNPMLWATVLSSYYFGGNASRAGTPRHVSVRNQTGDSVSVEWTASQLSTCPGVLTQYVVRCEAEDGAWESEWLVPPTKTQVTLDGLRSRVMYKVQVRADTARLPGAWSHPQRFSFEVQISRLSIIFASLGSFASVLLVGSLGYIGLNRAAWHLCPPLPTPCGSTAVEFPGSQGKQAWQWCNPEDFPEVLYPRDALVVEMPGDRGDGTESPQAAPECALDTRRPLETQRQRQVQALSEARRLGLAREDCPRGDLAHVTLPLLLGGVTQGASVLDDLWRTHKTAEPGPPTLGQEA
Chain of IL12 receptor on pre-activated mouse CD8+ T cells (mouse) (chain, as listed by the source, chain 2 of 2): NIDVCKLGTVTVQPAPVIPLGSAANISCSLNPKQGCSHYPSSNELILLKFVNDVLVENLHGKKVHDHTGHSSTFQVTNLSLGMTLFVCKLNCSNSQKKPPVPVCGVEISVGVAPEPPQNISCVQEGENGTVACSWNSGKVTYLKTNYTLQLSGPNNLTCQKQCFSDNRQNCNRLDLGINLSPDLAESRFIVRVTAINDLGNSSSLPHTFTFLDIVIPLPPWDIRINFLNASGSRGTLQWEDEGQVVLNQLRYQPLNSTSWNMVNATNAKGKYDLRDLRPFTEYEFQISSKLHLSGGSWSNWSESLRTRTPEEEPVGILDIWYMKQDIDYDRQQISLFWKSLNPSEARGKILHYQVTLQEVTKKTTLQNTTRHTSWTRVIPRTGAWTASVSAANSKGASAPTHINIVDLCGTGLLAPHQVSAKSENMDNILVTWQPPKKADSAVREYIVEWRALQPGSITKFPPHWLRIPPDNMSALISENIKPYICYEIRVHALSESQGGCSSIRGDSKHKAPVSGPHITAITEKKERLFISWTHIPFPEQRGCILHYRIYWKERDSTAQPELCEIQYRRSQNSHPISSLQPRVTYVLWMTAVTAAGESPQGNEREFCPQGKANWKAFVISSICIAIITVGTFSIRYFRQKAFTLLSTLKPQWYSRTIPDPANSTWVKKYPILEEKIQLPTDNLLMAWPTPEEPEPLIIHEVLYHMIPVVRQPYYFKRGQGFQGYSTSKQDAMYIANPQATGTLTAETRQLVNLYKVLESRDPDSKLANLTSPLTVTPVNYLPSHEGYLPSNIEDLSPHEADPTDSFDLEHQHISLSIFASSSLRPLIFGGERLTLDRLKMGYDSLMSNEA

EC50 of STAT4 phosphorylation in pre-activated mouse CD8+ T cells, fold against unmodified IL12: 80 fold
Substance: IL12Rβ1-(G3S)11-IL12

Source: US20220281936A1
